The source of these data is patent US20140120113A1.

Holding throughout (assay): cell-based or functional assay
Assay [1] deals with HA of influenza virus A/Brisbane/10/2007 (H3) (Influenza A virus A/Brisbane/10/2007 (H3)).
Assay [2] addresses HA of influenza virus A/Brisbane/59/2007 (H1) (Influenza A virus A/Brisbane/59/2007 (H1)).
Assay [3] concerns the target HA of influenza virus A/Chick/Germany/N/49 (H10) (Influenza A virus A/Chick/Germany/N/49 (H10)) (UniProt P12581).
Assay [4] concerns the target HA of influenza virus A/Ck/HK/SSP176/09 (H9) (Influenza A virus A/Chick/HK/SSP176/09 (H9)).
In assay [5] the target is HA of influenza virus A/EW/MPD411/07 (H6) (Influenza A virus A/Eurasian Wigeon/MPD411/07 (H6)).
Assay [6] concerns the target HA of influenza virus A/EW/MPF461/07 (H5) (Influenza A virus A/Eurasian Wigeon/MPF461/07 (H5)).
For assay [7], the target named is HA of influenza virus A/EW/MPH571/08 (H8) (Influenza A virus A/Eurasian Wigeon/MPH571/08 (H8)).
The target of assay [8] is HA of influenza virus A/Env/MPU3156/05 (H2) (Influenza A virus A/Env/MPU3156/05 (H2)).
Assay [9] has as its target HA of influenza virus A/Hiroshima/52/2005 (H3) (Influenza A virus A/Hiroshima/52/2005 (H3)).
The target of assay [10] is HA of influenza virus A/Hong Kong/1/68 (H3) (Influenza A virus A/Hong Kong/1/68 (H3)) (UniProt Q91MA7).
The target of assay [11] is HA of influenza virus A/Hong Kong/1073/99 (H9) (Influenza A virus A/Hong Kong/1073/99 (H9)).
Assay [12] deals with HA of influenza virus A/Johannesburg/33/94 (H3) (Influenza A virus A/Johannesburg/33/94 (H3)).
For assay [13], the target named is HA of influenza virus A/Panama/2007/1999 (H3) (Influenza A virus A/Panama/2007/1999 (H3)).
Assay [14] concerns the target HA of influenza virus A/WF/MPA 892/06 (H4) (Influenza A virus A/WF/HK/MPA892/06 (H4)).

UniProt P12581, sequence (P12581 17-561 limits assumed): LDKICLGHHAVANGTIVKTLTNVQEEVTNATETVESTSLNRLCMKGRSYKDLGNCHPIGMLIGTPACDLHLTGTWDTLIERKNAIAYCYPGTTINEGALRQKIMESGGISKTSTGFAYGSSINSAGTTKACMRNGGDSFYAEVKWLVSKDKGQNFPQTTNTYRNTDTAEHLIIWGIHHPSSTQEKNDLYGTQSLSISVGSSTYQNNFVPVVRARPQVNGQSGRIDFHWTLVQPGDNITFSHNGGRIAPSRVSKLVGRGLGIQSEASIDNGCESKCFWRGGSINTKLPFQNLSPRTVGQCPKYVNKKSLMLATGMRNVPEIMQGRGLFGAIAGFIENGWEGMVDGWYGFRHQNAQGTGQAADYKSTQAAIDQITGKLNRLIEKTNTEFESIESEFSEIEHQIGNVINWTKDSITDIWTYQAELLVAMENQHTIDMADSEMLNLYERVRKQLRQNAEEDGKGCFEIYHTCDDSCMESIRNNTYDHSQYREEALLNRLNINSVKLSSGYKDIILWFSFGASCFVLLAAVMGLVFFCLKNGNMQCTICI

For CR9114 (antibody), the geomean IC50, virus neutralization assay (VNA) worked out at 5.6 µg/mL in [1]; 2.6 µg/mL in assay [2]; 15.7 µg/mL in [3]; 6.3 µg/mL in assay [4]; 10.5 µg/mL in assay [5]; 10.5 µg/mL in assay [6]. Further, the geomean IC50, virus neutralization assay (VNA) amounted to 8.8 µg/mL in [7]; 8.8 µg/mL in [8]; 12.5 µg/mL in assay [9]; 19 µg/mL in [10]; 4.4 µg/mL in assay [11]; 21.9 µg/mL in [12]. In addition, the geomean IC50, virus neutralization assay (VNA) in [13] turned out to be 39.9 µg/mL; in assay [14], 0.8 µg/mL.
